According to publication PMC12572374, “Regulation of ADP-ribosyltransferase activity by ART domain dimerization in PARP15” (Nature Communications, 2025):
Numbering of substitutions follows the chain as printed. Names and notes keep the numbering of the source. Values belong to the molecule of their own block, whether it stands above or below them.

What was measured:
[1] = target: T1, PARP10 (Homo sapiens, UniProt Q53GL7); assay: auto-MARylation assay with purified enzyme (MacroGreen overlay); format: biochemical
T1 construct: ART domain, Asn819-Val1007
T1 sequence (Q53GL7 819-1007): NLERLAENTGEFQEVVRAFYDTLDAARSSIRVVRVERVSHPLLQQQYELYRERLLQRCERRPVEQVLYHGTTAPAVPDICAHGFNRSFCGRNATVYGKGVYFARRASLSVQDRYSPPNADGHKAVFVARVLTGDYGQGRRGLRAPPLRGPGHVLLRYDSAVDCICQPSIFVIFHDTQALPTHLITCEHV

[2] = target: T2, PARP15 (Homo sapiens, UniProt Q460N3, R576E); assay: ITC; also HDX-MS; format: binding
T2 construct: ART domain, Asn481-Ala678
T2 sequence (Q460N3 481-678 R576E): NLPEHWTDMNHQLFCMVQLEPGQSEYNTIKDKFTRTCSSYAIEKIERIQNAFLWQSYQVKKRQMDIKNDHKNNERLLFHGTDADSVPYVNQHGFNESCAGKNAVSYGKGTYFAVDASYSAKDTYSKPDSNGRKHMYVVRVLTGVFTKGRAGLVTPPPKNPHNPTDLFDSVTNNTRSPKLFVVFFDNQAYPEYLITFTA

[3] = target: T3, PARP15 (Homo sapiens, UniProt Q460N3); assay: ITC; also HDX-MS; format: binding
T3 construct: ART domain, Asn481-Ala678
T3 sequence (Q460N3 481-678): T2 sequence (Q460N3 481-678 R576E) with E96R

[4] = target: T2, PARP15; assay: X-ray crystal structure; also nanoDSF thermal shift; format: binding
[5] = target: T4, PARP15 (Homo sapiens, UniProt Q460N3, R576D); assay: nanoDSF thermal shift at […] ligand; format: binding
T4 construct: ART domain, Asn481-Ala678
T4 sequence (Q460N3 481-678 R576D): T2 sequence (Q460N3 481-678 R576E) with E96D

[6] = target: T5, human PARP15 ART domain (Asn481-Ala678), wild type (human) (UniProt Q460N3)
T5 sequence: T2 sequence (Q460N3 481-678 R576E) with E96R

[7] = target: the molecule itself; assay: SEC-MALS; SEC-RALS/LALS (OMNISEC), Superdex 200 Increase 10/300 GL; 120 µl at 0.75 mg/ml PARP15 constructs, 0.35 mg/ml PARP14 ART, 0.65 mg/ml PARP10 ART; 50 mM HEPES pH 7.5, 300 mM NaCl, 1 mM TCEP
[8] = target: the molecule itself; assay: AUC; sedimentation velocity at 0.5 µM ART domain, 58,000 rpm for 5 h, measured at 220 nm, no NAD+; discrete model genetic algorithm (DMGA) analysis; dimer to monomers
[9] = target: the molecule itself; assay: AUC; sedimentation velocity at 9 µM protein, auto-MARylated and unmodified ART; 20 mM sodium phosphate pH 7, 150 mM NaCl; van Holde-Weischet analysis
[10] = target: the molecule itself; assay: AUC; sedimentation velocity, 0.5 µM PARP15 ART, 58,000 rpm, measured at 220 nm; Discrete Model Genetic Algorithm fit, 100 Monte Carlo iterations; no NAD+ treatment; dimer to monomers
[11] = target: the molecule itself; assay: HDX-MS; 2 mg/ml m2-ART in 50 mM TBS pH 7.4, labelling 0-9000 s at 20 °C

Molecule: NC(=O)c1ccc[n+]([C@@H]2O[C@H](COP(=O)([O-])OP(=O)(O)OC[C@H]3O[C@@H](n4cnc5c(N)ncnc54)[C@H](O)[C@@H]3O)[C@@H](O)[C@H]2O)c1 [NAD+]
auto-MARylation assay with purified enzyme (MacroGreen overlay) [1]: PARP10 ART domain auto-modification increased in a roughly linear fashion over the entire concentration range

Kd [2]: 47 µM
Kd [3]: 24 µM
Molecule: Nc1ncnc2c1ncn2[C@@H]1O[C@H](C(=O)N2CCN(CC(=O)Nc3cccc4c3CNC4=O)CC2)[C@@H](O)[C@H]1O [EB-47]

Molecule: NC(=O)c1cccc(N)c1 [3-aminobenzamide]
X-ray crystal structure; also nanoDSF thermal shift [4]: we crystallized the monomeric R576E mutant in complex with the nicotinamide analog 3-aminobenzamide (3AB)
nanoDSF thermal shift at 1 mM ligand [5]: thermal stabilities and ligand-induced Tm-shifts indicated they were properly folded

MARylation of plate-bound PARP15 macrodomain-2 by 250 nM wild-type ART with increasing H559Y (2-fold dilution series from 2 µM), MacroGreen overlay [6]: 500 nM
B1: PARP15 ART domain (Asn481-Ala678) H559Y, catalytically inactive (domain or fragment)
chain: T2 sequence (Q460N3 481-678 R576E) with H79Y, E96R

B2: human PARP15 ART domain (Asn481-Ala678), wild type (domain or fragment, UniProt Q460N3 481-678, looked up)
chain: T2 sequence (Q460N3 481-678 R576E) with E96R
notes: PARP15, human, ADP-ribosyltransferase (ART) domain, residues Asn481-Ala678; numbers count on the canonical isoform (isoform 1); cDNA in pNIC-Bsa4 (GenBank EF198106 is the vector); also called PARP15 ART WT; WT PARP15; source: E. coli BL21(DE3), purified (HiTrap TALON, Superdex 75 SEC)
stoichiometry N [7]: 2
Kd [8]: 313 nM

B3: auto-MARylated PARP15 ART domain (Asn481-Ala678) (domain or fragment, human, UniProt Q460N3 481-678, looked up)
chain: T2 sequence (Q460N3 481-678 R576E) with E96R
modifications: mono-ADP-ribosylated by auto-modification with NAD+; sites not stated
notes: PARP15, human, ART domain, residues Asn481-Ala678 of the canonical isoform; same construct as m1 after auto-MARylation; source: E. coli BL21(DE3), purified; 40 µM incubated with 100 µM NAD+ for 1 h, NAD+ removed on a desalting column
binding result [9]: binds

B4: human PARP15 ART domain (Asn481-Ala678), wild type (domain or fragment, UniProt Q460N3 481-678, looked up)
chain: T2 sequence (Q460N3 481-678 R576E) with E96R
notes: PARP15 (protein mono-ADP-ribosyltransferase PARP15), human, ART domain, residues Asn481-Ala678 of the canonical isoform (isoform 1); No tag cleavage is described; not copied; also called PARP15 ART WT; WT PARP15; source: E. coli BL21(DE3), purified (TALON IMAC, Superdex 75 SEC)
Kd [10]: 313 nM

B5: PARP15 macrodomain-2 + ART domain construct (m2-ART; Gly287-Ala678) (domain or fragment, human, UniProt Q460N3 287-678, looked up)
chain: GTVSKPCFTAYEMKIGAITFQVATGDIATEQVDVIVNSTARTFNRKSGVSRAILEGAGQAVESECAVLAAQPHRDFIITPGGCLKCKIIIHVPGGKDVRKTVTSVLEECEQRKYTSVSLPAIGTGNAGKNPITVADNIIDAIVDFSSQHSTPSLKTVKVVIFQPELLNIFYDSMKKRDLSASLNFQSTFSMTTCNLPEHWTDMNHQLFCMVQLEPGQSEYNTIKDKFTRTCSSYAIEKIERIQNAFLWQSYQVKKRQMDIKNDHKNNERLLFHGTDADSVPYVNQHGFNRSCAGKNAVSYGKGTYFAVDASYSAKDTYSKPDSNGRKHMYVVRVLTGVFTKGRAGLVTPPPKNPHNPTDLFDSVTNNTRSPKLFVVFFDNQAYPEYLITFTA
notes: PARP15, human, macrodomain-2 and ART domain, residues Gly287-Ala678 of the canonical isoform (isoform 1); synthetic gene, codon optimised for E. coli, in pET151/TOPO; also called PARP15 m2-ART; PARP15 isoform-2 (m2-ART); source: E. coli BL21(DE3), purified (HiTrap TALON, Superdex 200 SEC, HiTrap SP XL cation exchange)
binding result [11]: binds
